Test results published in the supplement of paper PMC10567573.
± gives the standard deviation.

Assay: protein stability index of a GFP-peptide fusion (GPS, HEK-293T) (PSI 1-6); higher = more stable
Details: c terminus: a fixed tail appended
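Note: 24-mer peptide tiles fused after GFP, lentivirally expressed, FACS-sorted into six equal bins by GFP/DsRed ratio, decoded by Illumina sequencing, PSI is the read-weighted mean bin number.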

| Sequence | protein stability index (treatment: DMSO) | protein stability index (treatment: MLN4924 1 uM, 8 h) |
| --- | --- | --- |
| QVPSGEDQTALSLEECLRLLEATC [NFE2L1] | 4.02 ± 0.98 | 3.96 ± 0.31 |
| TNVESQLAEIRSDLERQNQEYQVL [KRT33B] | 4.52 ± 0.26 | 4.56 ± 0.25 |
| LIKNNSLPRKRQSLRSSSSKLAQL [INTS3] | 2.99 ± 0.27 | 3.31 ± 0.17 |
| GRIIAVFKPKNEEPYGHLNPKWTK [PI4K2A] | 2.09 ± 0.24 | 2.2 ± 0.44 |
| GPFGGFFASGFKRAFKIKDFANTI [CDS1] | 2.38 ± 0.31 | 2.44 ± 1 |
| VKVPGIVRLRTLLCKVLGVLFSVA [CLCN6] | 2.21 ± 0.32 | 2.19 ± 0.29 |
| LPLALVTWVPMFLSTLLAPYQALR [SOAT2] | 2.93 ± 0.6 | 2.95 ± 0.35 |
| EKAKAFWAMRRSYEAIAKHNQVEA [TRIM35] | 2.83 ± 0.34 | 3.18 ± 0.26 |
| HDCAESGSLDIMKMLLMYCAKMEK [FEM1C] | 2.16 ± 0.3 | 2.13 ± 0.22 |
| IPQLEDVSNFLKERTGFSIRPVAG [TPH1] | 2.98 ± 0.34 | 2.98 ± 0.14 |
| NIYYYLEDDSMSVIEPVVENSGIL [EFHC1] | 2.45 ± 0.43 | 2.41 ± 0.42 |
| LPTDAVDCMSRELVSLTSRNPDQR [FBXO34] | 4.85 ± 0.25 | 4.9 ± 0.17 |
| STNLGVNQAGFTLHSAIYAARPDV [ADD1] | 3.02 ± 0.18 | 3.08 ± 0.35 |
| KLMKNIRFPLMTPQELINYVQTVD [KLHL13] | 2.87 ± 0.18 | 2.82 ± 0.19 |
| VAGTMESPFSPGLFHRLDEDWDSA [ATF6] | 4.38 ± 0.11 | 4.32 ± 0.2 |
| DGEILFSLLQKVSPVAHKHLSRQK [TBC1D10A] | 2.36 ± 0.11 | 2.48 ± 0.37 |
| LMVHGNERFIQYLASRNTLFNLSN [SNAP91] | 2.67 ± 0.54 | 2.3 ± 0.7 |
| HFGWYLGWGDCVWLPYLYTLQGLY [DHCR7] | 3.09 ± 0.84 | 3.29 ± 0.11 |
| APGYDPETVTVTVGPAEPTLVNFH [CPN1] | 3.89 ± 0.32 | 3.99 ± 0.35 |
| GDRLQFNQLSQAELDELASKAPVL [EFHC1] | 4.25 ± 0.42 | 4.72 ± 0.36 |
| QAQPAIPRPNRLFLRQLRASHLGN [C2CD2L] | 3.09 ± 0.33 | 3.08 ± 0.27 |
| LASLQDGAAESPYGHPAGIDYKTT [RAB40B] | 4.4 ± 0.31 | 4.39 ± 0.15 |
| RERIQILKTSEVTQHLPRECLPEN [PTPN9] | 4.46 ± 0.19 | 4.36 ± 0.31 |

| Sequence | protein stability index (treatment: DMSO) | protein stability index (treatment: MLN4924 1 uM, 8 h) |
| --- | --- | --- |
| YREESDSLGQDLRRLRQELLKTEA [DAPK3] | 3.85 ± 0.68 | 3.83 ± 0.31 |
| GCRLPSISSTTCGRQLEKVPEKRD [SPATS1] | 3.98 ± 0.36 | 3.84 ± 0.22 |
| PASGSTFRGRRDVSGSWERDQQVE [RETREG3] | 4.67 ± 0.22 | 4.86 ± 0.28 |
| RAGSQVVATTARHSAAYRADPLRV [FUNDC2] | 3.59 ± 0.22 | 3.78 ± 0.17 |
| IKQKLGMNLMNELKQNFSKSWHDM [TPD52L1] | 2.09 ± 0.2 | 1.98 ± 0.35 |
| FVELQGFLAAEQDIREEIRKVVQS [TSN] | 2.21 ± 0.41 | 2.48 ± 0.82 |
| VAKRKSSMPQKFLGDKGLSDTPYD [IKZF1] | 4.22 ± 0.1 | 4.38 ± 0.16 |
| KQDSYEQGDSSQQSLKGHLRNNFQ [ZC2HC1C] | 4.69 ± 0.24 | 4.84 ± 0.11 |
| QTESGSEEVSSTVHIETFTTRHGE [C10orf62] | 5.21 ± 0.3 | 5.27 ± 0.34 |
| YSLGGVRSLNVASGSGKSGGYGFG [KRT71] | 2.72 ± 0.34 | 3.29 ± 0.49 |
| QLCEKAPKEATVMCEQCDVFYCDP [TRIM9] | 4.33 ± 0.081 | 4.33 ± 0.25 |
| KQNEKLNNQEEETEFKELDGLREA [CCDC89] | 5.51 ± 0.28 | 5.54 ± 0.3 |
| KQDVLGPSTTPPAHSSSNTIRSGI [SASS6] | 4.66 ± 0.34 | 4.63 ± 0.22 |
| MQLKSPMPSSTTQKDSYQPPGNVY [SPAG8] | 4.13 ± 0.17 | 4.14 ± 0.16 |
| LPSVPVSVPASDPRSCSSGPAGPY [PLEKHN1] | 4.35 ± 0.21 | 4.39 ± 0.17 |
| MEALAAETNLLLAQKQRLERALDA [TEKT4] | 4.13 ± 0.4 | 4.13 ± 0.38 |
| GRDSEGPAEGEGRLGRCMRRLRDM [KCNG1] | 4.99 ± 0.15 | 4.76 ± 0.15 |
| CPCCFGRDCLVLNQGYLSEAGASL [PI4K2A] | 2.44 ± 0.2 | 2.62 ± 0.49 |
| QNPKDCSKAKKLVCNINKGCGYGC [FUT8] | 3.53 ± 0.1 | 3.48 ± 0.17 |
| MVGLILGPFGINHGIELHSDVVEY [PCMTD1] | 2.68 ± 0.65 | 2.85 ± 0.52 |
| ILTEETEVKGTLEGDVCGVEPPGP [PBXIP1] | 5.14 ± 0.39 | 5.42 ± 0.24 |
| KFLMARKFDVLRAIELFHSYRETR [PTPN9] | 2.29 ± 0.54 | 2.15 ± 0.15 |
| QKRLKSKLLDHDNVKYLKKILDEL [GDAP1] | 2.1 ± 0.24 | 2.19 ± 0.22 |

| Sequence | protein stability index (treatment: DMSO) | protein stability index (treatment: MLN4924 1 uM, 8 h) |
| --- | --- | --- |
| DVDITLSSEAFHNYMNAAMVHINR [RTN3] | 2.18 ± 0.087 | 2.32 ± 0.25 |
| EKKDDENIPMETEETHLEETTESQ [SMARCE1] | 5.58 ± 0.43 | 5.39 ± 0.57 |
| TKCEYMLNSMPKRLCLVCGDIASG [ESRRG] | 2.32 ± 0.29 | 2.13 ± 0.12 |
| FADGVLSGEELHELFHTIDTHNTN [NECAB1] | 3.12 ± 0.38 | 3.68 ± 0.21 |
| FDDFVTNLIEKSASLDNGGCALTT [SOAT1] | 3.66 ± 0.27 | 3.62 ± 0.16 |
| SSFSLLLDLLSELYQKQPKIGYHL [INTS3] | 3.05 ± 0.2 | 2.86 ± 0.62 |
| LRRESTSQKEMDKAETKTKKAAES [FCHO1] | 5.45 ± 0.28 | 5.46 ± 0.13 |
| QLQAARNEYLLNLVATNAHLDHYY [FCHSD1] | 2.58 ± 0.44 | 2.55 ± 0.73 |
| PSTTPPAHSSSNTIRSGISPNLNV [SASS6] | 4.29 ± 0.33 | 4.44 ± 0.28 |
| AAMLRGQSDVGVAVFENKIYVVGG [KLHL13] | 2.07 ± 0.12 | 2.46 ± 0.55 |
| EETRVWHRRDGKWQNVHFHCSGAP [CAMK2B] | 3.1 ± 0.15 | 3.11 ± 0.32 |
| VLCPECENPETDLHVNPKKQTIGN [EIF5] | 4.3 ± 0.3 | 4.54 ± 0.15 |
| NEPSQAETAVEGDPSGVSGATVGR [C18orf25] | 5.66 ± 0.22 | 5.66 ± 0.11 |
| CNDGRIVIWDFLTRGIAKIISAHI [RBBP5] | 3.03 ± 0.42 | 2.66 ± 0.41 |
| SKNGNGLKNTPRFKRRRVRRRRME [PCMTD2] | 4.6 ± 0.2 | 4.58 ± 0.32 |
| PKQSGSFRYLQGMLEAGEGGDWPG [PDLIM4] | 3.79 ± 0.34 | 3.96 ± 0.15 |
| NMHLNLRPFDCPVCNKKFKMKHHL [ZBTB22] | 2.4 ± 0.2 | 2.81 ± 0.35 |
| DWYQKQTPTSPECDYSQYFKTIEE [KRT15] | 3.86 ± 0.23 | 3.97 ± 0.26 |
| VTVPSMLSRLLSRKRAVPCGACLT [OR3A1] | 2.39 ± 0.38 | 2.25 ± 0.29 |
| FYPVMLILFLVIGGMLNFMMHDQR [SOAT2] | 3.34 ± 0.36 | 2.95 ± 0.11 |
| REWYYGNVTRHQAECALNERGVEG [NCK2] | 3.33 ± 0.12 | 3.68 ± 0.16 |
| EKILRELSEEEEDEEEEEEEEEEG [KCNA4] | 5.65 ± 0.2 | 5.69 ± 0.17 |
| SPLHAAAEAGHVDICHMLVQFCRL [EHMT1] | 2.25 ± 0.069 | 2.5 ± 0.37 |

| Sequence | protein stability index (treatment: DMSO) | protein stability index (treatment: MLN4924 1 uM, 8 h) |
| --- | --- | --- |
| DCSDILRLIKELAKYEYMEEQVIL [SAT1] | 1.95 ± 0.51 | 2.23 ± 0.1 |
| LLNQQSLKRSANQMGVSAKRRPKA [MED27] | 3.47 ± 0.3 | 3.82 ± 0.24 |
| PKTPMDGADCGIQWWNAVFIMLLI [LYSMD4] | 2.5 ± 0.62 | 2.39 ± 0.41 |
| FHAYYYCFITLTTIGFGDYVALQT [KCNK9] | 3.27 ± 0.29 | 3.34 ± 0.36 |
| NHAIDIICGFLKERCFRGSSYPVC [OAS1] | 2.88 ± 0.38 | 2.6 ± 0.44 |
| QKHYVYGPLPQSFDKEWVAKQTKR [COX4I1] | 3.55 ± 0.41 | 3.7 ± 0.28 |
| GKKVSNQRFEVIEFDDGSGSVLRI [PTPRD] | 2.38 ± 0.74 | 2.5 ± 0.26 |
| VILLPYVSKVTGWCRDRLLGHREP [TMEM175] | 2.28 ± 0.3 | 2.04 ± 0.36 |
| HECVNMEESYYCRCHRGYTLDPNG [MATN2] | 3.44 ± 0.67 | 3.36 ± 0.52 |
| RDQHPQPSLGDSLESIPSLSQSPE [RTN2] | 5.44 ± 0.18 | 5.55 ± 0.12 |
| TPEELEEEIPVVICAAAGRMGATM [GLT8D2] | 4.25 ± 0.26 | 4.29 ± 0.21 |
| ELACPAERSGHVAVSDGRHMFVWG [KLHDC2] | 2.84 ± 0.15 | 2.92 ± 0.2 |
| LQCRSPPRLHGAKAILDAEPGPRP [TBC1D10A] | 4.46 ± 0.12 | 4.48 ± 0.12 |
| GGANDRWVRSVSFSHDGLHVASLA [WSB1] | 3.08 ± 0.3 | 3.16 ± 0.42 |
| LNWKMTLCLLVAWSIVGMAVVKGI [SLC6A17] | 2.61 ± 0.67 | 2.45 ± 0.48 |
| PHYICTLKQPHLLLEKYSYYLISG [PNLIPRP1] | 2.78 ± 0.81 | 2.74 ± 0.69 |
| CREPSPKMDFKTNILLKNLVTIAR [TRIM43] | 2.8 ± 0.59 | 2.35 ± 0.49 |
| SQKATRECEKSALTPGFSDNAIML [FAN1] | 3.85 ± 0.22 | 3.98 ± 0.17 |
| LQRQAEQNPTASYYNVVLLRYQFS [FCHO1] | 2.23 ± 0.4 | 2.28 ± 0.34 |
| EDITKGTQSLPTASASKFPSSGPV [AUP1] | 5.19 ± 0.19 | 5.08 ± 0.1 |
